Data taken from paper PMC3750073 (Biochemistry, 2013).

B1: SeMet MilB (selenomethionine-containing MilB, CMP hydrolase of Streptomyces rimofaciens ZJU5119) (enzyme, UniProt B4Y381 1-170, looked up)
chain: MTTTPKPRTAPAVGSVFLGGPFRQLVDPRTGVMSSGDQNVFSRLIEHFESRGTTVYNAHRREAWGAEFLSPAEATRLDHDEIKAADVFVAFPGVPASPGTHVEIGWASGMGKPMVLLLERDEDYAFLVTGLESQANVEILRFSGTEEIVERLDGAVARVLGRAGEPTVIG
modifications: selenomethionine (SeMet-containing protein)

Assays:
[1] = tested on: Nc1ccn([C@H]2C[C@H](O)[C@@H](COP(=O)(O)O)O2)c(=O)n1; experiment: purified protein; conditions: pH 7.5; 37.0 °C
[2] = tested on: Nc1ccn([C@@H]2O[C@H](COP(=O)(O)O)[C@@H](O)[C@H]2O)c(=O)n1; experiment: purified protein; conditions: pH 7.5; 37.0 °C
crystal structure = target: the molecule itself; experiment: crystal structure

Row | Molecule | Km [1] | kcat/Km [1] | Km [2] | kcat/Km [2] | stoichiometry N (crystal structure)
1 | (Streptomyces rimofaciens) | 5.4 (0.8) mM | 1.1 M⁻¹ s⁻¹ | 3.8 (0.5) mM | 5.2 M⁻¹ s⁻¹ | 
2 | B1 |  |  |  |  | 2
